Source: patent US20220348685A1 (ACCELERON PHARMA, published 2022)

T1: human ALK7-EK-Fc comprising protein (human, UniProt Q8NER5 22-113)
T1 construct: also called ALK7-Fc comprising protein; Human ALK7-Fc comprising protein; not shown: 'EK' segment between ALK7 and Fc; Fc portion
T1 sequence: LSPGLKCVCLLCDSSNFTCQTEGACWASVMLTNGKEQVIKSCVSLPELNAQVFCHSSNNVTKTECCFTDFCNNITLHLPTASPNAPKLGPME


Target: T1, human ALK7-EK-Fc comprising protein
Assay: SPR (Biacore T100/T200), antibody captured on FAB chip, ALK7-Fc protein as analyte, 1:1 model
Method: Experiments were performed using a Biacore T100/T200 biosensor (Biacore/GE Healthcare) at 25 and 37° C. ALK7 antibodies were captured on custom made FAB chip. A concentration series of ALK7-Fc comprising protein was injected over the flow cells at a flow rate of […]. To obtain kinetic rate constants the corrected data were fit to a 1:1 interaction model using BiaEvaluation software (GE Healthcare). The equilibrium binding constant KD was determined by the ratio of binding rate constants kd/ka.

| Kd [nM] | koff [s⁻¹] | kon [M⁻¹ s⁻¹] | Binder |
| --- | --- | --- | --- |
| 1 | 4.32e-05 | 43100 | M01 (antibody, V domains shown, Kappa light chain is implied by the anti-kappa reagent and KappaSelect; In SPR the antibody was captured on a custom FAB chip; also called ALK7 mAb M01) VH: QLQLQESGPGLVKPSETLSLTCTVSGGSISSSAYYWAWIRQPPGKGLEWIGSIYLSGSTTYNPSLKSRVTISVDTSKNQFSLKLSSVTAADTAVYYCARDGRYQSRSPDYYYGMDVWGQGTTVTVSS VL: EIVLTQSPGTLSLSPGERATLSCRASQSVSDNYLAWYQQKPGQAPRLLIYGASNIATGIPDRFSGSGSGTDFTLTISRLEPEDFAVYYCASVFSYPFTFGGGTKVEIK |
| 0.87 | 5.2e-05 | 59800 | N02 (antibody, V domains shown) VH: QLQLQESGPGLVKPSETLSLTCTVSGGSISSSAYYWAWIRQPPGKGLEWIGSIYLSGSTTYNPSLKSRVTISVDTSKNQFSLKLSSVTAADTAVYYCARDGRYQSRSPDYYYGMDVWGQGTTVTVSS VL: EIVLTQSPGTLSLSPGERATLSCRASQSVSSSYLAWYQQKPGQAPRLLIYGASSTAYGIPDRFSGSGSGTDFTLTISRLEPEDFAVYYCQQLVAYPFTFGGGTKVEIK |
| 0.39 | 1.43e-05 | 36600 | P03 (antibody, V domains shown) VH: QVQLVQSGAEVKKPGASVKVSCKASGYTFAGYNMHWVRQAPGQGLEWVGIINPNSGWTNYAQKFQGRVTMTRDTSVSAAYMELSRLRSDDTAVYYCARDPVGARYEVFDYWGQGTLVTVSS VL: EIVMTQSPATLSVSPGERATLSCQASQSVSSNLAWYQQKPGQAPRLLIYGASTIATGIPARFSGSGSGTEFTLTISSLQSEDFAVYYCQQAYAFPLTFGGGTKVEIK |
| 1.42 | 4.7e-05 | 33100 | Q04 (antibody, V domains shown) VH: QVQLVQSGAEVKKPGASVKVSCKASGYTFAGYNMHWVRQAPGQGLEWVGIINPNSGWTNYAQKFQGRVTMTRDTSVSAAYMELSRLRSDDTAVYYCARDPVGARYEVFDYWGQGTLVTVSS VL: EIVMTQSPATLSVSPGERATLSCKASQSVSSNLAWYQQKPGQAPRLLIYGASTRATGIPARFSGSGSGTEFTLTISSLQSEDFAVYYCQQAVKFPLTFGGGTKVEIK |
